Experimental data taken from the nanobody polyreactivity screen of Harvey et al. (2022).

Assay: yeast display, Sf9 membrane polyspecificity reagent, FACS + sequencing; frameworks hold sequencing errors
Method in brief: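 After 36–48 hours of galactose induction, yeast (Saccharomyces cerevisiae BJ5465) displaying a synthetic nanobody library were stained at 4 °C for 1 hour with 10% biotinylated, detergent-solubilized Sf9 membrane reagent. Streptavidin microbeads enriched the stained cells before FACS sorting into low and high (top ~1%) gates on anti-HA and streptavidin fluorescence. Each clone's polyreactivity label reflects its gate of origin.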

| Sequence | polyreactivity (PSR sort gate) |
| --- | --- |
| QVQLVESGGGLVQAGGSLRLSCDASGRMFALYAMGWYRQAPGKERELVAAITWRGGRTRYADSVKGRFTISRDNAKNTVYLQMTSLKPEDTAVYYCNKRLFASRYDYWGQGTQVTVSS | high polyreactivity |
| QVQLVESGGGLVQAGGSLRLSCAASGNIFLRYAMGWYRQAPGKERELVASITRSGASTYYAVSVKGRFTISRDNAKNTVYLQMNSLKPEDTAVYYCAASYYFRYYRGGYWGQGTQVTVSS | high polyreactivity |
| QVQLVESGGGLVQAGGSLSLSCAASGRTFDDNAMGWYRQAPGKERELVAAISSTGSTNYADSLKGRFTISRDNAKNTVYLQMNSLKPEDTAVYYCNTDGGHERAYYYWGQCTQVTVSS | low polyreactivity |
| QVQLVESGGVLVQAGGSLRLSCAASGITFSRNAMGWYRQAPGKEMELVAAITWNGGRTYYADSVKGRFTISRDNAKNTVYLPMNSLKPEATAVYYCAADYDYPDYYAPSWPGYNYWGQVTQVTVSS | low polyreactivity |
| QVQLVESGGGLVQAGGSLRLSCAASGIIFPWYTMGWYRQAPGKERELVAAISSGGRTNYADSVKGRFTISRDNAKNTVYLQMNSLKPEDTAVYYCAAKFYRDRDWGQGTQVTVSS | high polyreactivity |
| QVQLVDSGGGLVQEGGSLRLSCAASGNIFQTYDMGWYRQAHGKEREFVATITSSCARTYYADSVKGRFTISRDNAKNTVYVQMNCLKPEDTAVDYCNRVWSYANGYWGHGTQVTVSS | high polyreactivity |
| QVQLVESGGGLVQAGGSLRLSCAASGSTFAIYAMGWYRQAHGKERELVAAIRQRAGSTYYADSVKGRFTISRDNAKNTVYLQMNSLKPEDTAVYYCATATRPISRGYWGQGTQVTVSS | low polyreactivity |
| QVQLVESGGGLVQAGGSLRLSCGASGYIFDRYPMGWYRQAPGKEREVVASISRRGGSTYYADSVKGRFTISRDNAKNTVYLQMNSLKPEATAVYYCAAKWPFRRSAVVRYDYWGQGTQVTVSS | high polyreactivity |
| QVQLVESGGGLVQAGGSLRLSCAASGYIFSKYALGWYRQAPGKERELVASITGRGSRTYYADSVKGRFTISRDNAKNTVYLQMNSLKAEDTAVYYCAADWYGQKTSNRWYFRPGYVYWGQGTQVTVSS | high polyreactivity |
| QDQLVESGGGLVQAGGSLRLSCAASGNTYLNAMGWYRQAPAKEREMVAAISKGGADTYYADSVKGRFTISRDNAKYTVYLQMNSLKPEDTAVYYCNADYWFRFGSSVDQVTEDYWGQGTQVTVSS | low polyreactivity |
| QVQLVESGGGLVQAGGSLRLSCAASGSTDSNAMGWYRQAPGKERELVAAISGTGSRTYYADSVKGRFTISRDNAKNTVYLQMNSLKPEDTAVYYCAAYSGYYRPRYNYWGQGTQVTVSS | high polyreactivity |
| QVQLVESGGGLVQAGGSLRLSCAASGFIFASYTMGWYRQAPGKERELVASISRRRGSTYYADSVKGRFTISRDIAKNTVYLQMNILKPEDTAVYYCAAERLTIDYDYWGQGTQVTVSS | high polyreactivity |
| QVQLQESGGGLVHACGSLRPSCAASGSISDSWRMSWYRQAPGTEREFVAGITWGGTTNYADSVKGRFTISRDNAKNTVYLQMNSLKPEDTAVYYCNARQRTYYRTHRIRHKGNGYWGQGTQVTVSS | low polyreactivity |
| QVQLVESGGGLVQAGGSLRLSCAASGSIFNIYARGWYRQAPGKERELVATITGIADSTYYADSVKGRFTISRDNAKNTVYLQMNSLKPEDTAVYYCNADPSGVFFYSLEFDYWGQGTQVTVSS | low polyreactivity |
| QVQLVESGGGLVQAGGSLRLSCAASGRTFDSYVMGWYRQAPGKERELVAAISSRGGTYYADSVKGRFTISRDNAKNTVYLQMNSLKPEDTAVYYCAARIYRKYYRYDYWGQGTQVTVSS | high polyreactivity |
| QVQLVESGGGLVQAGGSLRLICAASGRIFDFYAMGWYRQAPGKERELVAAITNGGRTNYADSVKGRFTISRDNAKNTVYLQMNSLKPEDTAVYYCAARLAYWYYYAWRGPYYYWGQGTQVTVSS | high polyreactivity |
| QVQLVESGGGLVQAGGSLRLSCAASGITFSKYAMGWYRPAPGKERELVAAISSTASTNYADSVKGRFTISRDNAKHTVYFQMNSLKPEDTAVYYCNAGLFFQWFWTYDDYWGQGTQVTVSS | low polyreactivity |
| QVQLVESGGGLVQAGGSLRLSCAASGSTFGYNAMGWYRQAPGKERELVAAIRISGGTTYYADSVKGRFTSSRDNAKNTVYLQMNSPKPSDTAVYYCAAGTAGTTGSPKFSGYGYDYWGQGTQVTVSS | low polyreactivity |
| QVQLVESGGGLVQAGGSLRLSCAASGSTVGAYAMGWYRQAPGKERELVAAISYSGGSTYYADSVKGRFTISRDNAKNSVYLQMNSLKPEDSAVYYCAAGTKYTSAVHFFYWGQGTQVTVSS | high polyreactivity |
| QVQLVESGGGLVQAGGSLRLSCAASGGNFGYYAMGWYRQAPGKEREFVAAITLSGGRTYYADSVKGRFTISRDNAKNTVYLQMNSLKPEDTAVYYCAAKGTRRGKERNYWGQGTQVTVSS | high polyreactivity |
| QVHLVESGGGLVQAGGSLRLSCAASGRTFSRYPMGWYRQAPGKERELVAAIRGNSGNTYYAYSVKGRFTISRDNAKNTVYLQMNSLKPEDTAVYYCAKPFNIWGQGTQVTVSS | high polyreactivity |
| QVQLVDSGGGLVQAGGSLSLSCAASGRTFVTNAMGWYRQAPGKERELVAAISGNGGSTYYADSVKGRFTISRDNAKNTVYLQMNSLKPEDTAVYYCNKDYHVRYYYWGQGTQVTVSS | low polyreactivity |

| Sequence | polyreactivity (PSR sort gate) |
| --- | --- |
| QVQLVESGGGLVQAGGSLRLSCAASGRTCGYYAMGWYRQAPGKEREFVAVITWSGDSTYYADSVKGRFTISRDNAKNTVYLQMNSLKPEDTAVYNGNADSGNAGTAYDDYDYSGQGTQVTVSS | low polyreactivity |
| QVQLVESGGGLVQAGGSLRLSCAASGSIFGGSGMGWYRQAPGKERELVAAITSGSSTYYADSVKGRFTISRDNAKNTVYLQMNSLKPEDTAVYYCAARPYPHSAYEGDYWGRGTQVTVSS | low polyreactivity |
| QVQLVESGGGLVQAGGSLRLSCAASGLTFSTNDMGWYRQAPGKEREFVAAISFNGGSTYYADSVKGRFTLSRDNAKNTVYLQMNSLKPEDTAVYYCAAGSDYGLYYGFDFWGQGTQVTVSS | high polyreactivity |
| QVQLVESGGGLVQAGGSLRLSCAASGRIFVPYAMGWYRQAPGKERELVAVISRGGSTYYADSVKGRFTISRDNAKNTVYLQMNSLKPEDTAVYYCAARGVNRQGFNYWGQGTQVTVSS | high polyreactivity |
| QVQLVESGGGLVQAGGSLRLSCAASGSIFERNAMGWYRQAPGKERELVAGISSSGRTNYADSVKGRFTISRDNAKNTVYLQMNSLKPEDTAVYYCSADTYLYWEYDYWGQGTQVTVSS | low polyreactivity |
| HVQLQESGGGLMQAGGSQRLSCAASGSISYNSDMGWYRQAPGKEREFVAGIGYGTTTNYADSVKGRFTTSRDNAKNTVYLQMISMKPEDTEVYYCAAYQGNGYEFYYWGQGTQVTVRS | low polyreactivity |
| QVQLVESGGGLVQAGGSLRLSCAASGRIFGFYALGWYRQAPGKERELVAAITVSGSSTRYADSVKGRFTISRDNAKNTVYLQMNSLKPDDTAVYYCAASVGQFRYRYKWTFGNARMYYWGQGTQVTVSS | high polyreactivity |
| QVQLVDSGAGLVQAGGSLRLSCPASGRIFAVNAMGWYRKAPGKERELVAAINGGGSTNYADSVKGRFTISRDNAKNTVYLQMNSLKPQDTAVYYCAADVGWRSQTRGYYWGQGTQVTVSS | high polyreactivity |
| QVQLVESGGGLVQAGGSLRLSCAASGRTLYLNAMRWNRQPQRKERELVAISSGGSTYYADSVKGRFTISRDNAKNTVYLQMNSLKPEDTAVYYCNADEHYHFGYVFWYAYDYWGQGTQVTVSS | low polyreactivity |
| QVQLVESGGGLVQAGVSLRLSCAASGFIFYWYVMGWYRHAPGKERELVAGISKNGTNTYYADSVKGRFTISRDNAKNTVYLQMNSLKPEDTAVYYCAAAKCRTKYDYWGQGTQVTVSS | high polyreactivity |
| QVQLVESGGGLVQAGGSLRLSCAASGSIFSPNAMGWYRQATGKERELVAAISWTGVSTHYADSVKGRFTISRDNAKNTDYLHMNSLKPEDTAVYYCKYRFYRYPKYGYWGQGTQVTVSS | high polyreactivity |
| QVQLVESGGGLDQAGGSLRLSCAASGGIFYHNAMGWYRQAPGKERELVAVISWSRTRTYYADSVKGRFTISRDNAKNTVYLQMNILTPDDTAVYYCAASPDPYWVRMDYWGQGTQVNVSS | high polyreactivity |
| QVQLVESGGGLVQAGGSLRLSCAASGRTFSKYAMGWYRQAPGKERELVAAITDGRGDTYYADSVKGRFTISRDNEKNTVYLQMNSLKPEDTAVYYCAADPGYSLYEYWGQGTQVTVSS | low polyreactivity |
| QVQLVESGGGLVQAGGSLRLSCAASGFIFYTYAMGWYRQAPGKERELVAAIRRGGSTYYADSVKGRFTISRDNAKNTVYLQMNSLKPEDTAVYYCNARIPYKAKTNHFGYWGQGTQVTVSS | high polyreactivity |
| QVQLVESGGGLVQAGGSLRLSCAASGFTFRGYTIGWYRQAPGKERELVAAITWSGGSTYYADSVKGRFTISRDNAKNTVYLQMNSLKPEDTAVYYCASYAWYGYVYHHLYDYWGQGTQVTVSS | high polyreactivity |
| QVQLVESGGGLVQAGGSLRLSCAASGYIYAYYAMGWYRQAPGKERELVAAITGRGDTTYYADSVKGRFTISRDNAKNTVYLQMNSLIPEDTAVYYCNAEKPTYYYVPGKYDVDYWGQGTQVTVSS | low polyreactivity |
| QVQLVESGGGLVQAGGSLRLSCAASGGTFKFYAMGWYRQAPGKERELVAAISWSGTSTYYADSVKGRFTISRDNAKNTVYLQMNSLKPEDTAVYYCAADKRLRGHGYDYWGQGTQVTVSS | high polyreactivity |
| QVQLVESGGGLVQAGGSLRLSCAASGSTFVDYAMGWYRQAPGKERELVAAINSDGGGTYYADSVKGRFTISRDNAKNTVYLQMNSLKPEDTAVYYCNVEYEDYYAQRYGYDYWGQGTQVTVSS | low polyreactivity |
| QVQLVESGVGLVQAGGSLRLSCAASGFIIYGYVMGWYRQAPGKERELVAAINSSSGRTYYADSVKGRFTISRDNAKNTVYLQMNSLKPEDTAVYYCAAYYYGSYDGTPYDYWGQGTQVTVSS | low polyreactivity |
| QVQLVESGGGLVQAGGSLRLSCAASGYIFQWYDMGWYRQAPGKERELVAAISVTTGSTYYADSVKGRFTISRDNAKNTVYLQMNSLKPEDTAVYYCAAVSWYRHDMYYWGQGTQVTVSS | low polyreactivity |
| QVQLVESGGGLVQAGGSLRLSCAASGNTFKYYAMGWYRQAPGKERELVAAITWNGARTYYADSVKGRFTISRDNAKNTVYLQMNSLKPEDTAVYYCNARQGYRFDYWGQGTQVTVSS | high polyreactivity |
